The source of these data is patent publication US20210363254A1 (Novartis, published 2021).

For assay [1], the target named is T1, Programmed Death 1 (PD-1) (UniProt Q15116 25-288, limits assumed). As to the kind of experiment: FACS, blocking of ligand-Ig binding to PD-1, MFI of bound ligand against mAb concentration; legend paragraph 53 names 'PD-LI-Ig and PD-L2-Ig' for FIG. 8A; cells not named.
For assay [2], the target named is T1, Programmed Death 1 (PD-1). As to the kind of experiment: rank of the clone by competition binding against labelled murine mAb BAP049, second experiment (legends paragraph 52); footnote: empty boxes means worse than 4.
The target of assay [3] is T1, Programmed Death 1 (PD-1). Kind of assay: rank of the clone among the humanized BAP049 clones by FACS data.
For assay [4], the target named is T1, Programmed Death 1 (PD-1). Kind of assay: rank of the clone by competition binding against labelled murine mAb BAP049, first experiment (legends paragraph 52).

Where only a bound is given, the exact number is not on record here.

T1 sequence (Q15116 25-288 limits assumed): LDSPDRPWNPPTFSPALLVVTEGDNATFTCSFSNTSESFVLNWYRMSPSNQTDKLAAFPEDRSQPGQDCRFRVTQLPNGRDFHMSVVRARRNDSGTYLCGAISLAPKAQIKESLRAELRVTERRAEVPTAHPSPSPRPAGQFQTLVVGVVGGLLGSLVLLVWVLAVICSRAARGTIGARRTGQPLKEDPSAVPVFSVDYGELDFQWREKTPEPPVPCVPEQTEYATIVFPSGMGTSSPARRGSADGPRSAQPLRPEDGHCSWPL

B1: Chi mAb (Tyr) (antibody, human IgG4 S228P, kappa, V domains shown)
VH: QVQLQQSGSELVRPGASVKLSCKASGYTFTTYWMHWVRQRPGQGLEWIGNIYPGTGGSNFDEKFKNRTSLTVDTSSTTAYMHLASLTSEDSAVYYCTRWTTGTGAYWGQGTTVTVSS
VL: DIVMTQSPSSLTVTAGEKVTMSCKSSQSLLDSGNQKNFLTWYQQKPGQPPKLLIFWASTRESGVPDRFTGSGSVTDFTLTISSVQAEDLAVYYCQNDYSYPYTFGQGTKVEIKR
notes: also called BAP049-chi-Y; Chi (Tyr)
B1: the “IC50 (read off the curve)” value in assay [1] was about 0.9 µg/mL.

B2: Mu mAb (antibody, V domains shown)
VH: QVQLQQSGSELVRPGASVKLSCKASGYTFTTYWMHWVRQRPGQGLEWIGNIYPGTGGSNFDEKFKNRTSLTVDTSSTTAYMHLASLTSEDSAVYYCTRWTTGTGAYWGQGTLVTVSA
VL: DIVMTQSPSSLTVTAGEKVTMSCKSSQSLLDSGNQKNFLTWYQQKPGQPPKLLIFWASTRESGVPDRFTGSGSVTDFTLTISSVQAEDLAVYYCQNDYSYPCTFGGGTKLEIK
notes: also called murine mAb BAP049; murine anti-PD-1 mAb BAP049
Regarding B2, in assay [1], the “IC50 (read off the curve)” value was about 0.7 µg/mL.

B3: BAP049-hum10 (antibody, human IgG4 S228P, kappa)
heavy: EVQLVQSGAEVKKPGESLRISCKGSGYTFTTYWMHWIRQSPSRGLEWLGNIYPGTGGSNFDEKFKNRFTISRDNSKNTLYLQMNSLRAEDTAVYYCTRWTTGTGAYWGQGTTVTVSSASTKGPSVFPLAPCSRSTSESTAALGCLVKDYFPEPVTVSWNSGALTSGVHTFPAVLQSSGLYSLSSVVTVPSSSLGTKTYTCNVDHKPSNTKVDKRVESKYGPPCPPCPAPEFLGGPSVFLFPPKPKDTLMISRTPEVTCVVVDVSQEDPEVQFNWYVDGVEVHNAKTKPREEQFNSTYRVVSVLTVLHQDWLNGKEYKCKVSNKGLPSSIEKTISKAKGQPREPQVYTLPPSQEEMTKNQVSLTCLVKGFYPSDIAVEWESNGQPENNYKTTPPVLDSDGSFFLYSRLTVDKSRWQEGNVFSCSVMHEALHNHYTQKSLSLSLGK
light: EIVLTQSPATLSLSPGERATLSCKSSQSLLDSGNQKNFLTWYQQKPGQAPRLLIYWASTRESGVPSRFSGSGSGTDFTFTISSLEAEDAATYYCQNDYSYPYTFGQGTKVEIKRTVAAPSVFIFPPSDEQLKSGTASVVCLLNNFYPREAKVQWKVDNALQSGNSQESVTEQDSKDSTYSLSSTLTLSKADYEKHKVYACEVTHQGLSSPVTKSFNRGEC
notes: also called humanized BAP049 clone hum10
In the case of B3, the “IC50 (read off the curve)” value in assay [1] was about 1 µg/mL. For the same molecule, the “Competition Binding, 2nd exp. (rank)” value in assay [2] is over 4. For the same molecule, the “Ranking, FACS data” value in assay [3] stood at 7. Also, in assay [4], the “Competition Binding, 1st exp. (rank)” value was 6.

B4: BAP049-hum15 (antibody, human IgG4 S228P, kappa)
heavy chain: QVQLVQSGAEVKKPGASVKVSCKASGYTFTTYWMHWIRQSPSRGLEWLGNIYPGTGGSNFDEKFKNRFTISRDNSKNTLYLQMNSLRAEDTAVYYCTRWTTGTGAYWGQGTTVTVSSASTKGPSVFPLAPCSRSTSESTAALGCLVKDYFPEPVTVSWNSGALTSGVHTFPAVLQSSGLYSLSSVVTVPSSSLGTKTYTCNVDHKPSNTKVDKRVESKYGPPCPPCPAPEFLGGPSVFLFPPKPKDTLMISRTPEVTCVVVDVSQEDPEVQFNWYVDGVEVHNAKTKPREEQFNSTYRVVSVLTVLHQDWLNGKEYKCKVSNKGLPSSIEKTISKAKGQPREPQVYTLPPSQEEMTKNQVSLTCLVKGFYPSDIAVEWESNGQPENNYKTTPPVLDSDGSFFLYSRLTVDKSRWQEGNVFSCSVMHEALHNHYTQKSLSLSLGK
light chain: EIVLTQSPDFQSVTPKEKVTITCKSSQSLLDSGNQKNFLTWYQQKPGQAPRLLIYWASTRESGVPSRFSGSGSGTDFTFTISSLEAEDAATYYCQNDYSYPYTFGQGTKVEIKRTVAAPSVFIFPPSDEQLKSGTASVVCLLNNFYPREAKVQWKVDNALQSGNSQESVTEQDSKDSTYSLSSTLTLSKADYEKHKVYACEVTHQGLSSPVTKSFNRGEC
notes: also called clone 15
Regarding B4, the “Competition Binding, 2nd exp. (rank)” value in assay [2] came to 15. In addition, the “Ranking, FACS data” value in assay [3] turned out to be 6. The “Competition Binding, 1st exp. (rank)” value in assay [4] turned out to be 7.

B5: BAP049-hum11 (antibody, human IgG4 S228P, kappa)
heavy: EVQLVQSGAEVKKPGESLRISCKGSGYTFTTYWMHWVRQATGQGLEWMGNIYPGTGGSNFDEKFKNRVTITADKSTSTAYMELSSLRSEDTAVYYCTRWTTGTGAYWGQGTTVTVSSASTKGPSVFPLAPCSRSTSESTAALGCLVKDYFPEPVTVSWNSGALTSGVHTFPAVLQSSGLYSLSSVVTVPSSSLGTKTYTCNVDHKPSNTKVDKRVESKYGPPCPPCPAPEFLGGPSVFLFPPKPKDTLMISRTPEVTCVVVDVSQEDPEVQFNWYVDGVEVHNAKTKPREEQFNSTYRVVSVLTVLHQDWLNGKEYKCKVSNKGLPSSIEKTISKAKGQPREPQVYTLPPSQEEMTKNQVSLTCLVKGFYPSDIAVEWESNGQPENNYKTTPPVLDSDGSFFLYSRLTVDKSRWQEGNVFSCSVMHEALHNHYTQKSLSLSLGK
light: EIVLTQSPATLSLSPGERATLSCKSSQSLLDSGNQKNFLTWYQQKPGQAPRLLIYWASTRESGVPSRFSGSGSGTDFTFTISSLEAEDAATYYCQNDYSYPYTFGQGTKVEIKRTVAAPSVFIFPPSDEQLKSGTASVVCLLNNFYPREAKVQWKVDNALQSGNSQESVTEQDSKDSTYSLSSTLTLSKADYEKHKVYACEVTHQGLSSPVTKSFNRGEC
notes: also called humanized BAP049 clone hum11
For the molecule B5, the “Competition Binding, 2nd exp. (rank)” value in assay [2] is over 4. Also, the “Ranking, FACS data” value in assay [3] was 6. The “Competition Binding, 1st exp. (rank)” value in assay [4] came to 4.

B6: BAP049-hum08 (antibody, human IgG4 S228P, kappa)
heavy: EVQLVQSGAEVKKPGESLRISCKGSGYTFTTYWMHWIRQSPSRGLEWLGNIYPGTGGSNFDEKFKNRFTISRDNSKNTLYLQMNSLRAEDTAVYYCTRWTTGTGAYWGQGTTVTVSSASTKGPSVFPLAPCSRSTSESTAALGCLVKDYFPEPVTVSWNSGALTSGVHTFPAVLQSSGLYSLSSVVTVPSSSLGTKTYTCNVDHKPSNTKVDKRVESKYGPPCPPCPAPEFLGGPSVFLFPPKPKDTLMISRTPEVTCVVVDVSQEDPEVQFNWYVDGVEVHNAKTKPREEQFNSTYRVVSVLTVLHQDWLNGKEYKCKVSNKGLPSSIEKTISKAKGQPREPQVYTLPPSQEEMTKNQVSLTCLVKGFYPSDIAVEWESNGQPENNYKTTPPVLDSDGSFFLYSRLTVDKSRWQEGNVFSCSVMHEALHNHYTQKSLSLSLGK
light: EIVLTQSPDFQSVTPKEKVTITCKSSQSLLDSGNQKNFLTWYQQKPGQAPRLLIYWASTRESGVPSRFSGSGSGTDFTFTISSLEAEDAATYYCQNDYSYPYTFGQGTKVEIKRTVAAPSVFIFPPSDEQLKSGTASVVCLLNNFYPREAKVQWKVDNALQSGNSQESVTEQDSKDSTYSLSSTLTLSKADYEKHKVYACEVTHQGLSSPVTKSFNRGEC
notes: also called humanized BAP049 clone hum08
For B6, the “Competition Binding, 2nd exp. (rank)” value in assay [2] was 4. For the same molecule, the “Ranking, FACS data” value in assay [3] is 7. Moreover, the “Competition Binding, 1st exp. (rank)” value in assay [4] was 7.

B7: BAP049-hum09 (antibody, human IgG4 S228P, kappa)
heavy: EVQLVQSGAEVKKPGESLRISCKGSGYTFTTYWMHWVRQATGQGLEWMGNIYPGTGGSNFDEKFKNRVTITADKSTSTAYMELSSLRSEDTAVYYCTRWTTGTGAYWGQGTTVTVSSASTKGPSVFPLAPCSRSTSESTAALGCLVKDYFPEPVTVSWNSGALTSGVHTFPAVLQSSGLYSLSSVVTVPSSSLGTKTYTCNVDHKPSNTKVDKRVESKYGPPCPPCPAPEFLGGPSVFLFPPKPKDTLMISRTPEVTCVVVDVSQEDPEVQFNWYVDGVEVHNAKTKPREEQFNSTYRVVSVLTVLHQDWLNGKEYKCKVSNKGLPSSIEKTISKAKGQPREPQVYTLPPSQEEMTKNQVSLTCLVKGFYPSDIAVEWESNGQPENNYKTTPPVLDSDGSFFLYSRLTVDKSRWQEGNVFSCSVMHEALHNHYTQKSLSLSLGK
light: EIVLTQSPDFQSVTPKEKVTITCKSSQSLLDSGNQKNFLTWYQQKPGQAPRLLIYWASTRESGVPSRFSGSGSGTDFTFTISSLEAEDAATYYCQNDYSYPYTFGQGTKVEIKRTVAAPSVFIFPPSDEQLKSGTASVVCLLNNFYPREAKVQWKVDNALQSGNSQESVTEQDSKDSTYSLSSTLTLSKADYEKHKVYACEVTHQGLSSPVTKSFNRGEC
notes: also called humanized BAP049 clone hum09
Turning to B7, the “Competition Binding, 2nd exp. (rank)” value in assay [2] came to 4. For the same molecule, the “Ranking, FACS data” value in assay [3] was determined as 7. The “Competition Binding, 1st exp. (rank)” value in assay [4] is 2.

B8: BAP049-hum07 (antibody, human IgG4 S228P, kappa)
heavy chain: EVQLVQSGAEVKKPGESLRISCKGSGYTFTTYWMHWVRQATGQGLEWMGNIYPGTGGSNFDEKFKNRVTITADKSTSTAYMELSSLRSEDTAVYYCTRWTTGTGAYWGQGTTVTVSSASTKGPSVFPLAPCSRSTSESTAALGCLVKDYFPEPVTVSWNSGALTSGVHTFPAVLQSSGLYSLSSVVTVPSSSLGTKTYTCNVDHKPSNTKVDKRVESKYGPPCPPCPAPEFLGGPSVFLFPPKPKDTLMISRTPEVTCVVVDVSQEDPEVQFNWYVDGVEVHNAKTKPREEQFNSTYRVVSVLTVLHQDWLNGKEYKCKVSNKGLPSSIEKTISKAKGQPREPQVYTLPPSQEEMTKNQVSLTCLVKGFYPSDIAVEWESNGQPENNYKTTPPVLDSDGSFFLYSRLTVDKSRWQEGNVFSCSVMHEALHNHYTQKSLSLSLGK
light chain: EIVLTQSPATLSLSPGERATLSCKSSQSLLDSGNQKNFLTWYQQKPGKAPKLLIYWASTRESGVPSRFSGSGSGTDFTFTISSLEAEDAATYYCQNDYSYPYTFGQGTKVEIKRTVAAPSVFIFPPSDEQLKSGTASVVCLLNNFYPREAKVQWKVDNALQSGNSQESVTEQDSKDSTYSLSSTLTLSKADYEKHKVYACEVTHQGLSSPVTKSFNRGEC
notes: also called clone 7
As to B8, the “Competition Binding, 2nd exp. (rank)” value in assay [2] is over 4. The “Ranking, FACS data” value in assay [3] was 4. In addition, the “Competition Binding, 1st exp. (rank)” value in assay [4] is 7.

B9: BAP049-hum06 (antibody, human IgG4 S228P, kappa)
heavy chain: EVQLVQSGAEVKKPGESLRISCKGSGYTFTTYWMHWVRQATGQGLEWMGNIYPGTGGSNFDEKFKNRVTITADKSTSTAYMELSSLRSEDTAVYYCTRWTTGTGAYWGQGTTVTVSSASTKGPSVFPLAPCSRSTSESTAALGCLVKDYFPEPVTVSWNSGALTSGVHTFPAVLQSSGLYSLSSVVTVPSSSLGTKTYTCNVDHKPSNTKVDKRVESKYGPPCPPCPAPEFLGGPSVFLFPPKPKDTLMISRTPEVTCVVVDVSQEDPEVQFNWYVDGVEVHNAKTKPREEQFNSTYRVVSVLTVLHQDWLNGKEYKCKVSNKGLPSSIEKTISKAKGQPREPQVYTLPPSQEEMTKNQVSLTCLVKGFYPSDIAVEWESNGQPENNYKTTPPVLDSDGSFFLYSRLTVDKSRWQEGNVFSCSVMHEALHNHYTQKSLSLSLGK
light chain: DIVMTQTPLSLPVTPGEPASISCKSSQSLLDSGNQKNFLTWYQQKPGQAPRLLIYWASTRESGVPSRFSGSGSGTDFTFTISSLEAEDAATYYCQNDYSYPYTFGQGTKVEIKRTVAAPSVFIFPPSDEQLKSGTASVVCLLNNFYPREAKVQWKVDNALQSGNSQESVTEQDSKDSTYSLSSTLTLSKADYEKHKVYACEVTHQGLSSPVTKSFNRGEC
notes: also called clone 6
As for B9, the “Competition Binding, 2nd exp. (rank)” value in assay [2] came out at 3. The “Ranking, FACS data” value in assay [3] was found to be 1. Further, the “Competition Binding, 1st exp. (rank)” value in assay [4] amounted to 7.

B10: BAP049-hum04 (antibody, human IgG4 S228P, kappa, V domains shown)
VH: EVQLVQSGAEVKKPGESLRISCKGSGYTFTTYWMHWIRQSPSRGLEWLGNIYPGTGGSNFDEKFKNRFTISRDNSKNTLYLQMNSLRAEDTAVYYCTRWTTGTGAYWGQGTTVTVSS
VL: EIVLTQSPATLSLSPGERATLSCKSSQSLLDSGNQKNFLTWYQQKPGKAPKLLIYWASTRESGVPSRFSGSGSGTDFTFTISSLQPEDIATYYCQNDYSYPYTFGQGTKVEIKR
notes: also called clone 4
On to B10, for which the “Competition Binding, 2nd exp. (rank)” value in assay [2] came to 15. The “Ranking, FACS data” value in assay [3] amounted to 14. Further, the “Competition Binding, 1st exp. (rank)” value in assay [4] came out at 15.

B11: BAP049-hum14 (antibody, human IgG4 S228P, kappa)
heavy chain: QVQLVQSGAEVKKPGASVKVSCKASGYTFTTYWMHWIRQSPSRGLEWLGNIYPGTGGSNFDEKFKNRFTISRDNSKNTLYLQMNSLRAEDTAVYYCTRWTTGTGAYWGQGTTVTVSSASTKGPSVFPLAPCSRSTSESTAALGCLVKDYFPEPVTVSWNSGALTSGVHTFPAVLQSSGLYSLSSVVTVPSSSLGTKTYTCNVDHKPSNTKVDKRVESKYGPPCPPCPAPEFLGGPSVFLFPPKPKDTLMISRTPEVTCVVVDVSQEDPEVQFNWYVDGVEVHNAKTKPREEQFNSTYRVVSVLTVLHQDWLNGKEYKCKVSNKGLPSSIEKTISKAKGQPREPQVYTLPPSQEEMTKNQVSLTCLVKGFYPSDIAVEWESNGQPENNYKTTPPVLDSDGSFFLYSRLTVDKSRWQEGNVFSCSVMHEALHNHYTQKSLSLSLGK
light chain: EIVLTQSPATLSLSPGERATLSCKSSQSLLDSGNQKNFLTWYQQKPGQAPRLLIYWASTRESGVPSRFSGSGSGTDFTFTISSLEAEDAATYYCQNDYSYPYTFGQGTKVEIKRTVAAPSVFIFPPSDEQLKSGTASVVCLLNNFYPREAKVQWKVDNALQSGNSQESVTEQDSKDSTYSLSSTLTLSKADYEKHKVYACEVTHQGLSSPVTKSFNRGEC
notes: also called clone 14
For the molecule B11, the “Competition Binding, 2nd exp. (rank)” value in assay [2] amounted to 15. In assay [3], the “Ranking, FACS data” value turned out to be 16. For the same molecule, the “Competition Binding, 1st exp. (rank)” value in assay [4] was 7.

B12: BAP049-hum16 (antibody, human IgG4 S228P, kappa, V domains shown)
VH: EVQLVQSGAEVKKPGESLRISCKGSGYTFTTYWMHWVRQAPGQGLEWMGNIYPGTGGSNFDEKFKNRFTISRDNSKNTLYLQMNSLRAEDTAVYYCTRWTTGTGAYWGQGTTVTVSS
VL: EIVLTQSPDFQSVTPKEKVTITCKSSQSLLDSGNQKNFLTWYQQKPGQAPRLLIYWASTRESGVPSRFSGSGSGTDFTFTISSLEAEDAATYYCQNDYSYPYTFGQGTKVEIKR
notes: also called clone 16
On to B12, for which, in assay [2], the “Competition Binding, 2nd exp. (rank)” value was determined as 15. Also, the “Ranking, FACS data” value in assay [3] is 15. In assay [4], the “Competition Binding, 1st exp. (rank)” value was found to be 16.

B13: BAP049-hum13 (antibody, human IgG4 S228P, kappa)
heavy chain: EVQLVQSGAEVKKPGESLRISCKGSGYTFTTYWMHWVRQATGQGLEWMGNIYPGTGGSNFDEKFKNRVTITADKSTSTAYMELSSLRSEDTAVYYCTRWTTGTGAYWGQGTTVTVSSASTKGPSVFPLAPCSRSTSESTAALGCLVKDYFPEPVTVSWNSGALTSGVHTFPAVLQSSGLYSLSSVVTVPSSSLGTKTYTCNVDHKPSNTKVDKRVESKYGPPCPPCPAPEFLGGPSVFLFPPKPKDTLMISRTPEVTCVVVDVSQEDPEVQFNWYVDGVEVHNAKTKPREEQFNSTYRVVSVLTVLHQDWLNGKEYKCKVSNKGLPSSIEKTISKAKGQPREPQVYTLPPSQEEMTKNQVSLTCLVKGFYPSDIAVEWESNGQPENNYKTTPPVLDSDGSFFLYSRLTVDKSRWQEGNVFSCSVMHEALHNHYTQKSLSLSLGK
light chain: DVVMTQSPLSLPVTLGQPASISCKSSQSLLDSGNQKNFLTWYQQKPGKAPKLLIYWASTRESGVPSRFSGSGSGTDFTFTISSLEAEDAATYYCQNDYSYPYTFGQGTKVEIKRTVAAPSVFIFPPSDEQLKSGTASVVCLLNNFYPREAKVQWKVDNALQSGNSQESVTEQDSKDSTYSLSSTLTLSKADYEKHKVYACEVTHQGLSSPVTKSFNRGEC
notes: also called clone 13
On to B13, for which the “Competition Binding, 2nd exp. (rank)” value in assay [2] was found to be 1. Further, in assay [3], the “Ranking, FACS data” value was determined as 6. Also, the “Competition Binding, 1st exp. (rank)” value in assay [4] came to 1.

B14: BAP049-hum02 (antibody, human IgG4 S228P, kappa, V domains shown)
VH: EVQLVQSGAEVKKPGESLRISCKGSGYTFTTYWMHWVRQATGQGLEWMGNIYPGTGGSNFDEKFKNRVTITADKSTSTAYMELSSLRSEDTAVYYCTRWTTGTGAYWGQGTTVTVSS
VL: DIQMTQSPSSLSASVGDRVTITCKSSQSLLDSGNQKNFLTWYQQKPGQAPRLLIYWASTRESGIPPRFSGSGYGTDFTLTINNIESEDAAYYFCQNDYSYPYTFGQGTKVEIKR
notes: also called clone 2
Take B14: the “Competition Binding, 2nd exp. (rank)” value in assay [2] came out at 2. Further, the “Ranking, FACS data” value in assay [3] was 6. In addition, the “Competition Binding, 1st exp. (rank)” value in assay [4] was found to be 3.

B15: BAP049-hum03 (antibody, human IgG4 S228P, kappa, V domains shown)
VH: EVQLVQSGAEVKKPGESLRISCKGSGYTFTTYWMHWIRQSPSRGLEWLGNIYPGTGGSNFDEKFKNRFTISRDNSKNTLYLQMNSLRAEDTAVYYCTRWTTGTGAYWGQGTTVTVSS
VL: DIQMTQSPSSLSASVGDRVTITCKSSQSLLDSGNQKNFLTWYQQKPGQAPRLLIYWASTRESGIPPRFSGSGYGTDFTLTINNIESEDAAYYFCQNDYSYPYTFGQGTKVEIKR
notes: also called clone 3
Consider B15, for which the “Competition Binding, 2nd exp. (rank)” value in assay [2] turned out to be 14. In assay [3], the “Ranking, FACS data” value amounted to 7. Moreover, the “Competition Binding, 1st exp. (rank)” value in assay [4] turned out to be 8.

B16: BAP049-hum12 (antibody, human IgG4 S228P, kappa, V domains shown)
VH: EVQLVQSGAEVKKPGESLRISCKGSGYTFTTYWMHWVRQATGQGLEWMGNIYPGTGGSNFDEKFKNRVTITADKSTSTAYMELSSLRSEDTAVYYCTRWTTGTGAYWGQGTTVTVSS
VL: DIQMTQSPSSLSASVGDRVTITCKSSQSLLDSGNQKNFLTWYLQKPGQSPQLLIYWASTRESGVPSRFSGSGSGTDFTFTISSLEAEDAATYYCQNDYSYPYTFGQGTKVEIKR
notes: also called clone 12
Turning to B16, the “Competition Binding, 2nd exp. (rank)” value in assay [2] worked out at 16. The “Ranking, FACS data” value in assay [3] worked out at 3. Also, in assay [4], the “Competition Binding, 1st exp. (rank)” value turned out to be 8.
